Consider one variant from IntAct's records for PubMed 21119616.

B1: Retinoblastoma-associated protein (Homo sapiens), P06400 (parent)
chain: MPPKTPRKTAATAAAAAAEPPAPPPPPPPEEDPEQDSGPEDLPLVRLEFEETEEPDFTALCQKLKIPDHVRERAWLTWEKVSSVDGVLGGYIQKKKELWGICIFIAAVDLDEMSFTFTELQKNIEISVHKFFNLLKEIDTSTKVDNAMSRLLKKYDVLFALFSKLERTCELIYLTQPSSSISTEINSALVLKVSWITFLLAKGEVLQMEDDLVISFQLMLCVLDYFIKLSPPMLLKEPYKTAVIPINGSPRTPRRGQNRSARIAKQLENDTRIIEVLCKEHECNIDEVKNVYFKNFIPFMNSLGLVTSNGLPEVENLSKRYEEIYLKNKDLDARLFLDHDKTLQTDSIDSFETQRTPRKSNLDEEVNVIPPHTPVRTVMNTIQQLMMILNSASDQPSENLISYFNNCTVNPKESILKRVKDIGYIFKEKFAKAVGQGCVEIGSQRYKLGVRLYYRVMESMLKSEEERLSIQNFSKLLNDNIFHMSLLACALEVVMATYSRSTSQNLDSGTDLSFPWILNVLNLKAFDFYKVIESFIKAEGNLTREMIKHLERCEHRIMESLAWLSDSPLFDLIKQSKDREGPTDHLESACPLNLPLQNNHTAADMYLSPVRSPKKKGSTTRVNSTANAETQATSAFQTQKPLKSTSLSLFYKKVYRLAYLRLNTLCERLLSEHPELEHIIWTLFQHTLQNEYELMRDRHLDQIMMCSMYGICKVKNIDLKFKIIVTAYKDLPHAVQETFKRVLIKEEEYDSIIVFYNSVFMQRLKTNILQYASTRPPTLSPIPHIPRSPYKFPSSPLRIPGGNIYISPLKSPYKISEGLPTPTKMTPRSRILVSIGESFGTSEKFQKINQMVCNSDRVLKRSAEGSNPPKPLKKLRFDIEGSDEADGSKHLPGESKFQQKLAEMTSTRTRMQKQKMNDSMDTSNKEEK
partner: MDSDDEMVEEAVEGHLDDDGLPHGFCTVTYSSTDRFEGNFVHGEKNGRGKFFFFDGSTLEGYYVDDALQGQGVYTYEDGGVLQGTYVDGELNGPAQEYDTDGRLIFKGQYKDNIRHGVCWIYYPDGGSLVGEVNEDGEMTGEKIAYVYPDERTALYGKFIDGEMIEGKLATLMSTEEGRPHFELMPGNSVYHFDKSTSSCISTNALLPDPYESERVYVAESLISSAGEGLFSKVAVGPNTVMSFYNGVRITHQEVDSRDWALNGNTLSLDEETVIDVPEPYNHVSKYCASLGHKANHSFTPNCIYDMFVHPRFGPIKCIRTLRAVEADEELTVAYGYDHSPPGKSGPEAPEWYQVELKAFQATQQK

This assay covers variants of B1. To be noted: with setd7_human SETD7, Q8WTS6.
Consider K810R, for which the “effect of a mutation on the interaction” value was “disrupting interaction”.
